# From patent publication US20060257938A1, “Method of screening for drugs that block ligand binding to a lipid binding protein” (priority 2005, published 2006)
# Where a chain is given by its changes, count along the chain named.
# B1: 18G 31F 73L 72A (protein, listed as Rattus norvegicus)
# chain: AFDGTWKVDRNENYEKFGEKMGINVVKRKLFAHDNLKLTITQEGNKFTVKESSNFRNIDVVFELGVDFAYSALDGTELTGTWTMEGNKLVGKFKRVDNGKELIAVREISGNELIQTYTYEGVEAKRIFKKE
# modifications: PEPTIDE (1)...(131) wild-type rat intestinal fatty acid binding protein
# B2: 14L 18L 31L 73G 117V 72A (protein, listed as Rattus norvegicus)
# chain: B1 chain with Y14L, G18L, F31L, L73G, Y117V
# modifications: PEPTIDE (1)...(131) wild-type rat intestinal fatty acid binding protein
# B3: 14A 18Y 31W 73G 117V 72A (protein, listed as Rattus norvegicus)
# chain: B1 chain with Y14A, G18Y, F31W, L73G, Y117V
# modifications: PEPTIDE (1)...(131) wild-type rat intestinal fatty acid binding protein
# B4: 14I 18L 31W 73V 117G 72A (protein, listed as Rattus norvegicus)
# chain: B1 chain with Y14I, G18L, F31W, L73V, Y117G
# modifications: PEPTIDE (1)...(131) wild-type rat intestinal fatty acid binding protein
# B5: 18V 31I 55L 73V 72A (protein, listed as Rattus norvegicus)
# chain: B1 chain with G18V, F31I, F55L, L73V
# modifications: PEPTIDE (1)...(131) wild-type rat intestinal fatty acid binding protein
# B6: 14I 18V 31W 73I 117V 72A (protein, listed as Rattus norvegicus)
# chain: B1 chain with Y14I, G18V, F31W, L73I, Y117V
# modifications: PEPTIDE (1)...(131) wild-type rat intestinal fatty acid binding protein
# B7: 38A 106V 117A 72A (protein, listed as Rattus norvegicus)
# chain: B1 chain with G18M, F31G, L38A, L73A, R106V, Y117A
# modifications: PEPTIDE (1)...(131) wild-type rat intestinal fatty acid binding protein
# B8: 38M 104S 115A 74F 72A (protein, listed as Rattus norvegicus)
# chain: B1 chain with G18M, F31G, L38M, L73A, D74F, A104S, Q115A
# modifications: PEPTIDE (1)...(131) wild-type rat intestinal fatty acid binding protein
# B9: 14L 18L 31W 73W 117L 72A (protein, listed as Rattus norvegicus)
# chain: B1 chain with Y14L, G18L, F31W, L73W, Y117L
# modifications: PEPTIDE (1)...(131) wild-type rat intestinal fatty acid binding protein
# B10: 18V 31Y 73I 72A (protein, listed as Rattus norvegicus)
# chain: B1 chain with G18V, F31Y, L73I
# modifications: PEPTIDE (1)...(131) wild-type rat intestinal fatty acid binding protein
# B11: 18I 31F 73V 72A (protein, listed as Rattus norvegicus)
# chain: B1 chain with G18I, L73V
# modifications: PEPTIDE (1)...(131) wild-type rat intestinal fatty acid binding protein
# B12: 14W 18L 117S 72A (protein, listed as Rattus norvegicus)
# chain: B1 chain with Y14W, G18L, F31G, L73A, Y117S
# modifications: PEPTIDE (1)...(131) wild-type rat intestinal fatty acid binding protein
# B13: 78F 102I 72A (protein, listed as Rattus norvegicus)
# chain: B1 chain with G18M, F31G, L73A, L78F, L102I
# modifications: PEPTIDE (1)...(131) wild-type rat intestinal fatty acid binding protein
# B14: 18V 31Y 73V 72A (protein, listed as Rattus norvegicus)
# chain: B1 chain with G18V, F31Y, L73V
# modifications: PEPTIDE (1)...(131) wild-type rat intestinal fatty acid binding protein
# B15: 104T 115A 74F 72A (protein, listed as Rattus norvegicus)
# chain: B1 chain with G18M, F31G, L73A, D74F, A104T, Q115A
# modifications: PEPTIDE (1)...(131) wild-type rat intestinal fatty acid binding protein
# B16: 38Q 62I 106I 117A 72A (protein, listed as Rattus norvegicus)
# chain: B1 chain with G18M, F31G, L38Q, F62I, L73A, R106I, Y117A
# modifications: PEPTIDE (1)...(131) wild-type rat intestinal fatty acid binding protein
# B17: 18L 73F 117G 72A (protein, listed as Rattus norvegicus)
# chain: B1 chain with G18L, F31G, L73F, Y117G
# modifications: PEPTIDE (1)...(131) wild-type rat intestinal fatty acid binding protein
# B18: 14L 18L 31Y 73L 117A 72A (protein, listed as Rattus norvegicus)
# chain: B1 chain with Y14L, G18L, F31Y, Y117A
# modifications: PEPTIDE (1)...(131) wild-type rat intestinal fatty acid binding protein
# B19: 18I 31Y 73I 72A (protein, listed as Rattus norvegicus)
# chain: B1 chain with G18I, F31Y, L73I
# modifications: PEPTIDE (1)...(131) wild-type rat intestinal fatty acid binding protein
# Assay: Probe fluorescence ratio response to linolenic acid relative to ADIFAB2
# Type: binding
# Details: response relative to ADIFAB2
# Summary of the method: (§1)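 Each fatty acid's response was expressed relative to ADIFAB2, the rI-FABP-L72A probe, as ΔR/ΔRreference. ΔR is the change in the background-corrected two-wavelength intensity ratio R=Fλ1/Fλ2 from its analyte-free baseline R0. Emission was read near about 420-480 nm for unbound and about 495-580 nm for FFA-bound probe.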
row,Molecule,DR/DR LNA
1,B1,1.235
2,B2,1.139
3,B3,0.940
4,B4,1.960
5,B5,2.433
6,B6,1.495
7,B7,0.541
8,B8,1.615
9,B9,1.640
10,B10,2.537
11,B11,2.738
12,B12,0.835
13,B13,2.322
14,B14,2.605
15,B15,2.206
16,B16,0.930
17,B17,1.913
18,B18,2.818
19,B19,2.865

# Assay: Probe fluorescence ratio response to stearic acid relative to ADIFAB2
# Type: binding
# Details: response relative to ADIFAB2
# Summary of the method: as §1
row,Molecule,DR/DR SA
1,B1,1.690
2,B2,0.170
3,B3,0.158
4,B4,0.606
5,B5,1.233
6,B6,0.283
7,B7,0.065
8,B8,0.356
9,B9,0.294
10,B10,1.139
11,B11,1.294
12,B12,0.297
13,B13,1.877
14,B14,1.330
15,B15,0.877
16,B16,0.663
17,B17,0.663
18,B18,0.762
19,B19,1.310

# Assay: Probe fluorescence ratio response to arachidonic acid relative to ADIFAB2
# Type: binding
# Details: arachidonic acid; response relative to ADIFAB2
# Summary of the method: as §1
row,Molecule,DR/DR AA
1,B1,1.785
2,B2,1.180
3,B3,0.365
4,B4,2.037
5,B5,2.273
6,B6,1.553
7,B7,1.492
8,B8,1.690
9,B9,1.772
10,B10,1.946
11,B11,2.649
12,B12,0.976
13,B13,2.093
14,B14,2.400
15,B15,2.635
16,B16,1.656
17,B17,2.445
18,B18,2.987
19,B19,2.487

# Assay: Probe fluorescence ratio response to linoleic acid relative to ADIFAB2
# Type: binding
# Details: response relative to ADIFAB2
# Summary of the method: as §1
row,Molecule,DR/DR LA
1,B1,1.520
2,B2,1.170
3,B3,1.018
4,B4,2.047
5,B5,2.680
6,B6,1.668
7,B7,0.229
8,B8,1.778
9,B9,1.782
10,B10,2.619
11,B11,3.096
12,B12,1.063
13,B13,2.493
14,B14,2.780
15,B15,2.231
16,B16,1.288
17,B17,2.283
18,B18,2.948
19,B19,3.031

# Assay: Probe fluorescence ratio response to palmitoleic acid relative to ADIFAB2
# Type: binding
# Details: response relative to ADIFAB2
# Summary of the method: as §1
row,Molecule,DR/DR POA
1,B1,1.235
2,B2,0.180
3,B3,0.883
4,B4,1.770
5,B5,2.285
6,B6,1.411
7,B7,0.121
8,B8,1.172
9,B9,2.059
10,B10,2.528
11,B11,2.665
12,B12,0.811
13,B13,2.022
14,B14,2.376
15,B15,1.661
16,B16,0.473
17,B17,1.731
18,B18,2.317
19,B19,2.620

# Assay: Probe fluorescence ratio response to palmitic acid relative to ADIFAB2
# Type: binding
# Details: response relative to ADIFAB2
# Summary of the method: as §1
row,Molecule,DR/DR PA
1,B1,1.025
2,B2,0.377
3,B3,0.421
4,B4,1.236
5,B5,1.253
6,B6,0.652
7,B7,0.033
8,B8,0.498
9,B9,0.970
10,B10,1.784
11,B11,1.893
12,B12,0.377
13,B13,1.434
14,B14,1.534
15,B15,0.720
16,B16,0.550
17,B17,1.039
18,B18,1.444
19,B19,1.825

# Assay: Probe fluorescence ratio response to oleic acid relative to ADIFAB2
# Type: binding
# Details: response relative to ADIFAB2
# Summary of the method: as §1
row,Molecule,DR/DR OA
1,B1,1.365
2,B2,0.031
3,B3,0.518
4,B4,1.756
5,B5,2.254
6,B6,0.887
7,B7,0.368
8,B8,1.155
9,B9,1.085
10,B10,2.007
11,B11,2.257
12,B12,0.904
13,B13,2.506
14,B14,2.349
15,B15,1.621
16,B16,1.167
17,B17,1.908
18,B18,1.908
19,B19,2.322
